Measured values from the Immune Epitope Database (IEDB).
pKd: −log10 of the molar value.

Legend:
HLA-A*24:02 = test: IEDB peptide-MHC binding, purified MHC/direct/fluorescence; filed as Kd, often an IC50 or EC50 that approximates it; ≥ and ≤ were set here for values at or beyond the usual limits of such assays
HLA-B*07:02 = test: as above
HLA-A*03:01 = test: as above
HLA-A*31:01 = test: as above
HLA-B*15:01 [1] = test: as above
HLA-B*58:01 = test: as above
HLA-A*01:01 = test: as above
HLA-A*02:01 [2] = test: as above
HLA-B*08:01 [3] = test: as above
HLA-B*40:01 = test: as above
HLA-B*08:02 = test: as above; details: source organism: Influenza A virus(A/swine/Shandong/fNY/2003(H9N2))
HLA-A*11:01 = test: as above
HLA-B*44:02 = test: as above
HLA-A*26:01 [4] = test: as above
HLA-B*27:05 [5] = test: as above
HLA-B*46:01 [6] = test: as above
HLA-A*69:01 [7] = test: as above
HLA-B*15:09 = test: as above; details: source organism: Giardia lamblia ATCC 50803
HLA-B*08:01 [8] = test: IEDB peptide-MHC binding, purified MHC/competitive/fluorescence; filed as Kd, often an IC50 or EC50 that approximates it; ≥ and ≤ were set here for values at or beyond the usual limits of such assays; details: source organism: Yersinia pestis Antiqua
HLA-B*27:05 [9] = test: as above
HLA-B*57:01 [10] = test: as above
HLA-B*18:01 [11] = test: as above
HLA-B*15:01 [12] = test: as above
HLA-A*69:01 [13] = test: as above
HLA-A*02:01 [14] = test: as above
HLA-B*51:01 = test: as above
HLA-B*39:01 = test: as above
HLA-A*26:01 [15] = test: as above
HLA-B*46:01 [16] = test: as above
HLA-A*02:03 = test: IEDB peptide-MHC binding, purified MHC/direct/fluorescence; filed as Kd, often an IC50 or EC50 that approximates it; ≥ and ≤ were set here for values at or beyond the usual limits of such assays
HLA-A*29:02 = test: as above
HLA-A*23:01 = test: as above
HLA-A*02:11 = test: as above
HLA-A*68:02 = test: as above
HLA-A*02:12 = test: as above
HLA-A*02:16 = test: as above
HLA-A*24:03 = test: as above
HLA-A*02:19 = test: as above
HLA-B*15:17 = test: IEDB peptide-MHC binding, purified MHC/competitive/fluorescence; filed as Kd, often an IC50 or EC50 that approximates it; ≥ and ≤ were set here for values at or beyond the usual limits of such assays; details: source organism: Orthohantavirus negraense
HLA-B*57:01 [17] = test: IEDB peptide-MHC binding, purified MHC/direct/fluorescence; filed as Kd, often an IC50 or EC50 that approximates it; ≥ and ≤ were set here for values at or beyond the usual limits of such assays; details: source organism: Bacillus cereus G9842
HLA-B*18:01 [18] = test: as above; details: source organism: Bacillus cereus G9842
HLA-B*27:03 = test: as above; details: source organism: Bacillus cereus G9842
[19] = source organism: Influenza A virus (A/Viet Nam/HN/2004(H5N1))
[20] = source organism: Giardia lamblia ATCC 50803
[21] = source organism: Orthohantavirus tulaense
[22] = source organism: Orthohantavirus negraense
[23] = source organism: Bacillus cereus G9842
[24] = source organism: Francisella tularensis subsp. holarctica LVS
[25] = source organism: dengue virus type 2

ERNEQGQTL
pKd (HLA-A*24:02; [19]): ≤ 4.70
pKd (HLA-B*07:02; [19]): ≤ 4.70
pKd (HLA-A*03:01; [19]): ≤ 4.70
pKd (HLA-A*31:01; [19]): ≤ 4.70
pKd (HLA-B*15:01 [1]; [19]): ≤ 4.70
pKd (HLA-B*58:01; [19]): ≤ 4.70
pKd (HLA-A*01:01; [19]): ≤ 4.70
pKd (HLA-A*02:01 [2]; [19]): ≤ 4.70
pKd (HLA-B*08:01 [3]; [19]): ≤ 4.70
pKd (HLA-B*40:01; [19]): ≤ 4.70
pKd (HLA-B*08:02): ≤ 4.70
pKd (HLA-A*11:01; [19]): ≤ 4.70
pKd (HLA-B*44:02; [19]): ≤ 4.70
pKd (HLA-A*26:01 [4]; source organism: Influenza A virus(A/swine/Shandong/fNY/2003(H9N2))): ≤ 4.70
pKd (HLA-B*27:05 [5]; [19]): ≤ 4.70
pKd (HLA-B*46:01 [6]; [19]): ≤ 4.70

LERIKANIF
pKd (HLA-A*24:02; [20]): ≤ 4.70
pKd (HLA-B*07:02; [20]): ≤ 4.70
pKd (HLA-A*03:01; [20]): ≤ 4.70
pKd (HLA-A*31:01; [20]): ≤ 4.70
pKd (HLA-B*15:01 [1]; [20]): 6.04
pKd (HLA-A*69:01 [7]; [20]): ≤ 4.70
pKd (HLA-B*58:01; [20]): ≤ 4.70
pKd (HLA-A*01:01; [20]): ≤ 4.70
pKd (HLA-A*02:01 [2]; [20]): ≤ 4.70
pKd (HLA-B*08:01 [3]; [20]): 4.78
pKd (HLA-B*40:01; [20]): 5.61
pKd (HLA-A*11:01; [20]): ≤ 4.70
pKd (HLA-B*44:02; [20]): ≤ 4.70
pKd (HLA-B*27:05 [5]; [20]): ≤ 4.70
pKd (HLA-B*15:09): ≤ 4.70
pKd (HLA-B*46:01 [6]; [20]): ≤ 4.70

LRQKRKAGV
pKd (HLA-B*08:01 [8]): ≤ 4.70
pKd (HLA-B*27:05 [9]; source organism: Yersinia pestis Antiqua): 7.09

RQWRWPLGE
pKd (HLA-B*27:05 [9]; source organism: Mycobacterium tuberculosis C): 6.03

RRAYSGKQY
pKd (HLA-B*57:01 [10]; source organism: Kurkino virus): ≤ 4.70
pKd (HLA-B*18:01 [11]; source organism: Kurkino virus): ≤ 4.70
pKd (HLA-B*15:01 [12]; source organism: Kurkino virus): ≤ 4.70
pKd (HLA-A*69:01 [13]; source organism: Kurkino virus): ≤ 4.70
pKd (HLA-A*02:01 [14]; source organism: Kurkino virus): ≤ 4.70
pKd (HLA-B*51:01; source organism: Kurkino virus): ≤ 4.70
pKd (HLA-B*39:01; source organism: Kurkino virus): ≤ 4.70
pKd (HLA-A*26:01 [15]; source organism: Kurkino virus): ≤ 4.70
pKd (HLA-B*27:05 [9]; source organism: Kurkino virus): 6.64
pKd (HLA-B*46:01 [16]; source organism: Kurkino virus): ≤ 4.70
pKd (HLA-A*02:03; [21]): ≤ 4.70
pKd (HLA-A*29:02; [21]): ≤ 4.70
pKd (HLA-A*23:01; [21]): ≤ 4.70
pKd (HLA-A*03:01; [21]): ≤ 4.70
pKd (HLA-A*02:11; [21]): ≤ 4.70
pKd (HLA-A*68:02; [21]): ≤ 4.70
pKd (HLA-A*02:12; [21]): ≤ 4.70
pKd (HLA-A*02:16; [21]): ≤ 4.70
pKd (HLA-A*24:03; [21]): ≤ 4.70
pKd (HLA-A*02:19; [21]): ≤ 4.70

RRFTQAIYD
pKd (HLA-B*57:01 [10]; [22]): ≤ 4.70
pKd (HLA-B*18:01 [11]; [22]): ≤ 4.70
pKd (HLA-B*15:01 [12]; [22]): ≤ 4.70
pKd (HLA-A*69:01 [13]; [22]): ≤ 4.70
pKd (HLA-A*02:01 [14]; [22]): ≤ 4.70
pKd (HLA-B*15:17): ≤ 4.70
pKd (HLA-B*51:01; [22]): ≤ 4.70
pKd (HLA-B*39:01; [22]): ≤ 4.70
pKd (HLA-A*26:01 [15]; [22]): ≤ 4.70
pKd (HLA-B*27:05 [9]; [22]): 6.50
pKd (HLA-B*46:01 [16]; [22]): ≤ 4.70
pKd (HLA-A*02:03; [22]): ≤ 4.70
pKd (HLA-A*29:02; [22]): ≤ 4.70
pKd (HLA-A*23:01; [22]): ≤ 4.70
pKd (HLA-A*03:01; [22]): ≤ 4.70
pKd (HLA-A*02:11; [22]): ≤ 4.70
pKd (HLA-A*68:02; [22]): ≤ 4.70
pKd (HLA-A*02:12; [22]): ≤ 4.70
pKd (HLA-A*02:16; [22]): ≤ 4.70
pKd (HLA-A*24:03; [22]): ≤ 4.70
pKd (HLA-A*02:19; [22]): ≤ 4.70

TQIPRQMVL
pKd (HLA-B*57:01 [17]): ≤ 4.70
pKd (HLA-B*18:01 [18]): ≤ 4.70
pKd (HLA-A*29:02; [23]): ≤ 4.70
pKd (HLA-A*03:01; [23]): ≤ 4.70
pKd (HLA-A*69:01 [7]; [23]): ≤ 4.70
pKd (HLA-B*27:03): ≤ 4.70
pKd (HLA-A*02:11; [23]): ≤ 4.70
pKd (HLA-A*68:02; [23]): ≤ 4.70
pKd (HLA-A*02:01 [2]; [23]): ≤ 4.70
pKd (HLA-A*02:12; [23]): ≤ 4.70
pKd (HLA-A*02:16; [23]): ≤ 4.70
pKd (HLA-A*24:03; [23]): ≤ 4.70
pKd (HLA-A*26:01 [4]; [23]): ≤ 4.70
pKd (HLA-A*02:19; [23]): ≤ 4.70
pKd (HLA-B*46:01 [6]; [23]): ≤ 4.70

VYYIVVRDF
pKd (HLA-A*24:02; [24]): 8.21
pKd (HLA-A*23:01; [24]): 7.77
pKd (HLA-A*24:03; [24]): 7.56

WYGMEIRPL
pKd (HLA-A*24:02; [25]): 6.34
pKd (HLA-A*23:01; [25]): 5.74
